For assay [1], the target named is Lig A9 (9th tandem Big repeat of LigA) (L. interrogans serovar Pomona). Put plainly: SEC; Superose 12 10/300 GL, 25 mM HEPES pH 7.0, 50 mM KCl, with and without 3 mM CaCl2; column calibrated with molecular mass markers; self-association, monomer to dimer. A general note: In gel filtration, larger molecules generally elute earlier.
Assay [2] concerns the target Lig A10 (10th tandem Big repeat of LigA) (L. interrogans serovar Pomona). The description is as above.
The target of assay [3] is LigBCen2 (L. interrogans serovar Pomona). Description: SEC; Superose 12 10/300 GL, 50 mM Tris pH 7.0, 50 mM KCl, with and without 3 mM CaCl2; column calibrated with molecular mass markers; self-association, monomer to dimer.

As usually defined, the stoichiometry N is the number of molecules, sites or subunits per partner or assembly. “Lig A9 (9th tandem Big repeat of LigA) (domain or fragment)”: in assay [1], the stoichiometry N is 2.

As for “Lig A10 (10th tandem Big repeat of LigA) (domain or fragment)”, the stoichiometry N in assay [2] worked out at 2. For the substance LigBCen2 (domain or fragment), the stoichiometry N in assay [3] was determined as 2.

These data come from paper PMC3012076.
